Patent US20220348665A1 (ABL BIO, published 2022)
Values joined by “and” are separate entries in the source; they are usually repeats but may differ in a detail not shown here. Equal values may be shown once. Read-outs that look alike come from different tables or passages of the source. One block for each binder: values may come before it.

How the values were obtained:
[1] = target: T1, human IGF1R extracellular domain, recombinant, His tag at C-terminus (human, UniProt P08069 31-932); assay: SPR (Biacore T200), His-tagged human IGF1R ECD captured by anti-his antibody on CM4 chip, bivalent model
T1 construct: also called human IGF1R ECD; ECD of IGF1R

[2] = target: T1, human IGF1R extracellular domain, …; assay: ELISA, human IGF1R coated, anti-human Fab HRP
[3] = target: T1, human IGF1R extracellular domain, …; assay: SPR (Biacore T200), His-tagged human IGF1R ECD captured by anti-His antibody on CM4 chip, 1564 IgG as analyte, 25 C, fit Bivalent Analyte; lower panel
[4] = target: T1, human IGF1R extracellular domain, …; assay: SPR (Biacore T200), His-tagged human IGF1R ECD captured by anti-His antibody on CM4 chip, 1564 IgG as analyte, 25 C, fit Bivalent Analyte; upper panel
[5] = target: T2, alpha-synuclein aggregates (human alpha-synuclein, fibril) (human, UniProt P37840 1-140); assay: sandwich ELISA: antibody coated at 0.04 to 400 nM, 2000 ng/ml alpha-synuclein aggregates, biotin-conjugated antibody and HRP-streptavidin; value is C of the 4-P fit table under the plot, which the text calls EC50
[6] = target: T2, alpha-synuclein aggregates (human …); assay: SPR (BIAcore T200), antibody captured on Protein A chip, alpha-synuclein fibril as analyte (file ProteinA-Fibril-main-5th), 25 C, fit 1:1 Binding
[7] = target: T2, alpha-synuclein aggregates (human …); assay: SPR (BIAcore T200), antibody captured on protein A chip, 1:1 model
[8] = target: T3, monkey IGF1R, recombinant, His tag at C-terminus (monkey); assay: ELISA, monkey IGF1R coated, anti-human Fab HRP
T3 construct: also called Monkey IGF1R (National Research Council Canada)

[9] = target: T2, alpha-synuclein aggregates (human …); assay: ELISA on alpha-synuclein aggregates coated at 1 ug/ml, antibody 5-fold dilutions from 400 nM, anti-human Fc-HRP; value is C of the 4-P fit table under the plot
[10] = target: T2, alpha-synuclein aggregates (human …); assay: ELISA on coated alpha-synuclein aggregates, antibody 5-fold dilutions from 400 nM, anti-human Fc-HRP; value is C of the 4-P fit table under the plot
[11] = target: T4, human IGF1R, endogenous, on the surface of breast cancer cell lines (MCF-7, JIMT-1, BT474) (human, UniProt P08069 31-1367); assay: FACS on MCF-7 cells, antibody 10 ug/mL (2nd Ab only 2.86, not treated 1.88)
T4 construct: also called endogenous IGF1R on the cell surface; MCF-7 cell line

[12] = target: T2, alpha-synuclein aggregates (human …); assay: SPR (BIAcore T200), antibody captured on Protein A chip, alpha-synuclein fibril as analyte (file ProteinA-Fibril-main-5th), 25 C, fit 1:1 Binding; remark: listed apart in the source
[13] = target: T1, human IGF1R extracellular domain, …; assay: ELISA on coated IGF1R, antibody 5-fold dilutions from 400 nM, anti-human Fc-HRP; C of the 4-P fit (D 2.68), extrapolated: curve at baseline up to about 3 nM, about 0.8 at 80 nM and about 1.75 at 400 nM, no plateau; the text says this monospecific antibody did not bind
[14] = target: T1, human IGF1R extracellular domain, …; assay: ELISA on coated IGF1R, antibody 5-fold dilutions from 400 nM, anti-human Fc-HRP; C of the 4-P fit (D 0.945, R^2 0.985), extrapolated: curve at baseline up to 16 nM, about 0.2 at 80 nM and about 0.75 at 400 nM, no plateau; the text says this monospecific antibody did not bind
[15] = target: T5, mouse IGF1R on bEND.3 mouse brain endothelial cells (mouse, UniProt Q60751 31-1373); assay: FACS on bEND.3 mouse brain endothelial cells
T5 construct: whole, on cells; also called IGF1R expressed on the surface of brain endothelial cells
T5 sequence (Q60751 31-1373): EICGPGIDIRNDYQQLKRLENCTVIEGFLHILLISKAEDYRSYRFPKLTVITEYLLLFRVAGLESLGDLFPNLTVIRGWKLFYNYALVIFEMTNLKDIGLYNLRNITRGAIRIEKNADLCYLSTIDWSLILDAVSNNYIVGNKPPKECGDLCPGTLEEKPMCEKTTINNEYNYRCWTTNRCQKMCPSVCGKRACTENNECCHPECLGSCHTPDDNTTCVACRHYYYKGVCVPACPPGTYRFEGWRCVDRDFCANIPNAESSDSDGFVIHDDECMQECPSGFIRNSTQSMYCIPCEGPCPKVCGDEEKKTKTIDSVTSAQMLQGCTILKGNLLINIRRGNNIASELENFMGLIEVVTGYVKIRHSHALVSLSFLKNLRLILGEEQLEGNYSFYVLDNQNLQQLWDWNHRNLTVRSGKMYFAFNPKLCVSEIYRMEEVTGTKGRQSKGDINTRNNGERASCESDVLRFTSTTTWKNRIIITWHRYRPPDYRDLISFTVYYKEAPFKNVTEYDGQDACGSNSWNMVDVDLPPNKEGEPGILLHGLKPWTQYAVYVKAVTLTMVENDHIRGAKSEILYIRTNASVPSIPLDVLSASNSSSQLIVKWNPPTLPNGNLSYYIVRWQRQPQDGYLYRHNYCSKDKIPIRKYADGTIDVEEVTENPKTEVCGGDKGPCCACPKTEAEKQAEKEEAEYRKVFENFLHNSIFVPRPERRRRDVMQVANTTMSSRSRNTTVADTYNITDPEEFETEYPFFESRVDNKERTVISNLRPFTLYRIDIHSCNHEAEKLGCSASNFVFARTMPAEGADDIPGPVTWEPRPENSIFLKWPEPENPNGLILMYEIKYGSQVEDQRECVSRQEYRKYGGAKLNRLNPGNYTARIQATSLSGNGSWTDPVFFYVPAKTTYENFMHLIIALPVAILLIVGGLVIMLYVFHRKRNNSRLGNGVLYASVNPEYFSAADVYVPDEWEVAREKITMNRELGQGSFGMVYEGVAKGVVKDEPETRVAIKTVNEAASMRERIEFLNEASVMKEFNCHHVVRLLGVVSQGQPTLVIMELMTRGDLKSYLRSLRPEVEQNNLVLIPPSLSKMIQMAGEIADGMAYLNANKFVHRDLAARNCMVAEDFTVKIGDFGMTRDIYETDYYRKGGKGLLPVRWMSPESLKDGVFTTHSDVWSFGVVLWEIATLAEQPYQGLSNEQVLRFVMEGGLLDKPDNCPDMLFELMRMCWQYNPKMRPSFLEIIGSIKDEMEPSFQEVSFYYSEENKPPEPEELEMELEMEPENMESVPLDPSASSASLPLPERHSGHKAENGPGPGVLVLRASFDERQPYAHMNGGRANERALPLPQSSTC

[16] = target: T2, alpha-synuclein aggregates (human …); assay: SPR (BIAcore T200), antibody captured on Protein A chip, alpha-synuclein fibril as analyte (file ProteinA-Fibril-main-5th), 25 C, fit 1:1 Binding; remark: listed apart in the source
[17] = target: T2, alpha-synuclein aggregates (human …); assay: sandwich ELISA, antibody coated, aggregates 2000 ng/ml

Kd [1]: 2.53 nM | EC50 [2]: 0.0823 nM | koff [3]: 2.53e-06 s⁻¹ | koff [4]: 2.41e-06 s⁻¹ | kon [4]: 902 M⁻¹ s⁻¹
B1: 1564 IgG (anti-IGF1R clone 1564, full IgG1 form) (antibody, V domains shown)
VH: EVQLLESGGGLVQPGGSLRLSCAASGFTFSSYDMSWVRQAPGKGLEWVSAISYDNGNTYYADSVKGRFTISRDNSKNTLYLQMNSLRAEDTAVYYCAKGVLTTLMNWFDYWGQGTLVTVSS
VL: QSVLTQPPSASGTPGQRVTISCTGSSSNIGSNDVSWYQQLPGTAPKLLIYANSNRPSGVPDRFSGSKSGTSASLAISGLRSEDEADYYCGAWDDSLNGYVFGGGTKLTVL

EC50 [5]: 12.9 nM | koff [6]: 0.000291 s⁻¹ | kon [6]: 1.07e+06 M⁻¹ s⁻¹ | Kd [7]: 0.0204 nM
B2: hu11F11(ver.4) (antibody, human IgG1, V domains shown)
VH: EVQLVESGGGLVQPGGSLRLSCATSGFTFSDFYMEWVRQPPGKRLEWIAASRNKANDYTTEYSASVKGRFTVSRDTSKSSLYLQMNSLRAEDTAIYYCARDAHGKPFAYWGQGTTVTVSS
VL: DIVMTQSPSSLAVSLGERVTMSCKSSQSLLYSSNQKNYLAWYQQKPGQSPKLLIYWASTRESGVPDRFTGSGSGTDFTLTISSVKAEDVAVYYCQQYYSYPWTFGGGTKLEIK
notes: Human IgG1 backbone

EC50 [8]: 2.48 nM and 2.21 nM | EC50 [9]: 22.7 nM | EC50 [10]: 1.5 nM
B3: ch11F11-1564 (bivalent bispecific antibody: chimeric 11F11 IgG with 1564 scFv on each heavy chain) (bispecific antibody, not shown: a dimerising Fc or GST)
heavy (part 1 of 2): EVQLQESGGGLVQPGGSLRLSCATSGFTFSDFYMEWVRQPPGKRLEWIAASRNKANDYTTEYSASVKGRFIVSRDTSQSILYLQMNALRAEDTAIYYCARDAHGKPFAYWGQGTLVTVSA
heavy (part 2 of 2): GGGGSGGGGSGGGGSQSVLTQPPSASGTPGQRVTISCTGSSSNIGSNDVSWYQQLPGTAPKLLIYANSNRPSGVSDRFSGSKSGTSASLAISGLRSEDEADYYCGAWDDSLNGYVFGCGTKLTVLGGGGSGGGGSGGGGSGGGGSEVQLLESGGGLVQPGGSLRLSCAASGFTFSSYDMSWVRQAPGKCLEWVSAISYDNGNTYYADSVKGRFTISRDNSKNTLYLQMNSLRAEDTAVYYCAKGVLTTLMNWFDYWGQGTLVTVSS
light: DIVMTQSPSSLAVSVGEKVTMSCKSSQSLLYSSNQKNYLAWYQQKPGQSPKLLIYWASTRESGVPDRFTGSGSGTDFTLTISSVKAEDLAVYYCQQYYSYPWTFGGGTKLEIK

EC50 [5]: 15.1 nM | GeoMean, Internalization at 37° C. [11]: 3.18 | koff [12]: 0.000173 s⁻¹ | kon [12]: 1.19e+06 M⁻¹ s⁻¹ | Kd [7]: 0.0596 nM
B4: hu11F11(ver.2) (antibody, human IgG1, kappa, V domains shown)
VH: EVQLVESGGGLVQPGGSLRLSCATSGFTFSDFYMEWVRQPPGKRLEWIAASRNKANDYTTEYSASVKGRFTVSRDDSKSSLYLQMNSLRAEDTAIYYCARDAHGKPFAYWGQGTTVTVSS
VL: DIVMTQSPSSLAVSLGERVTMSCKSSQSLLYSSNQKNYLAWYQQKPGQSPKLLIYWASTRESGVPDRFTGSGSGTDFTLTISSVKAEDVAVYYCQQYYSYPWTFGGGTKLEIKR
notes: also called hu11F11 WT; humanized antibody 11F11 (ver. 2)

EC50 [5]: 13.4 nM | koff [12]: 0.000266 s⁻¹ | kon [12]: 1.07e+06 M⁻¹ s⁻¹ | Kd [7]: 0.0316 nM
B5: hu11F11(ver.3) (antibody, human IgG1, V domains shown)
VH: EVQLVESGGGLVQPGGSLRLSCATSGFTFSDFYMEWVRQPPGKRLEWIAASRNKANDYTTEYSASVKGRFTISRDTSKSSLYLQMNSLRAEDTAIYYCARDAHGKPFAYWGQGTTVTVSS
VL: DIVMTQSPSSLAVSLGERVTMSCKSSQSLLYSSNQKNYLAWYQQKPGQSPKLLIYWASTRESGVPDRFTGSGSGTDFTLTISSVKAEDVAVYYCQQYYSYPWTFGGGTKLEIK
notes: Human IgG1 backbone

EC50 [13]: 201 nM | EC50 [14]: 196 nM | binding result [15]: no binding | koff [16]: 0.000563 s⁻¹ | kon [16]: 609000 M⁻¹ s⁻¹ | EC50 [9]: 33.8 nM | EC50 [10]: 1.27 nM | Kd [7]: 0.0247 nM | EC50 [17]: 12.5 nM
B6: Ch11F11 (chimeric 11F11 antibody, human IgG1) (antibody, V domains shown)
VH: EVQLQESGGGLVQPGGSLRLSCATSGFTFSDFYMEWVRQPPGKRLEWIAASRNKANDYTTEYSASVKGRFIVSRDTSQSILYLQMNALRAEDTAIYYCARDAHGKPFAYWGQGTLVTVSA
VL: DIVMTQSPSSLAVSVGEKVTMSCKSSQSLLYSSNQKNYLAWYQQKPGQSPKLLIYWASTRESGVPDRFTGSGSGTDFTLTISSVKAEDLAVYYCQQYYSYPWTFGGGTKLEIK
notes: Chimeric human IgG1

EC50 [5]: 11.5 nM | koff [16]: 5.36e-05 s⁻¹ | kon [16]: 845000 M⁻¹ s⁻¹
B7: hu11F11(ver.1) (antibody, human IgG1, V domains shown)
VH: EVQLVESGGGLVQPGGSLRLSCATSGFTFSDFYMEWVRQPPGKRLEWIAASRNKANDYTTEYSASVKGRFTISRDDSKSSLYLQMNSLRAEDTAIYYCARDAHGKPFAYWGQGTTVTVSS
VL: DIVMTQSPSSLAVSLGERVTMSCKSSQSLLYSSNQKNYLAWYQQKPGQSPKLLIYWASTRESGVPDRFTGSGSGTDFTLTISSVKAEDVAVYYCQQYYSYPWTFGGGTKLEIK
notes: Human IgG1 backbone
